Source: US20090162366A1

How the values were obtained:
[1] = target: CM14 (influenza A virus); experiment: ELISA on peptide, Ab 10 µg/ml
[2] = target: M2 peptide (influenza A virus, A/Hong Kong/1/68 (H3N2)); experiment: ELISA on peptide, Ab 10 µg/ml
[3] = target: NM12 (influenza A virus); experiment: ELISA on peptide, Ab 10 µg/ml
[4] = target: CM16 (influenza A virus); experiment: ELISA on peptide, Ab 10 µg/ml
[5] = target: CM17 (influenza A virus); experiment: ELISA on peptide, Ab 10 µg/ml
[6] = target: CM13 (influenza A virus); experiment: ELISA on peptide, Ab 10 µg/ml
[7] = target: CM12 (influenza A virus); experiment: ELISA on peptide, Ab 10 µg/ml
[8] = target: CM15 (influenza A virus); experiment: ELISA on peptide, Ab 10 µg/ml
[9] = target: NM14 (influenza A virus); experiment: ELISA on peptide, Ab 10 µg/ml
[10] = target: NM17 (influenza A virus); experiment: ELISA on peptide, Ab 10 µg/ml
[11] = target: NM13 (influenza A virus); experiment: ELISA on peptide, Ab 10 µg/ml
[12] = target: NM16 (influenza A virus); experiment: ELISA on peptide, Ab 10 µg/ml
[13] = target: NM15 (influenza A virus); experiment: ELISA on peptide, Ab 10 µg/ml
[14] = target: NM11 (influenza A virus); experiment: ELISA on peptide, Ab 10 µg/ml
[15] = target: T1, M2GHTGKS peptide conjugated with BSA (influenza A virus, A/chicken/HongKong/SF1/03 (H9N2)); experiment: peptide-BSA ELISA (++ EC50<10^-9M; + 10^-9M<EC50<10^-8M); conditions: remark: other sources report otherwise
[16] = target: M2EG peptide conjugated with BSA (influenza A virus, A/New York/687/1995 (H3N2)); experiment: as above; conditions: remark: other sources report otherwise
[17] = target: T2, M2KGENS peptide conjugated with BSA (influenza A virus, A/Turkey/VA/158512/02 (H7N2)); experiment: as above; conditions: remark: other sources report otherwise
[18] = target: M2TES peptide conjugated with BSA (influenza A virus, A/Viet Nam/1203/2004 (H5N1)); experiment: as above; conditions: remark: other sources report otherwise
[19] = target: T3, M2PHTGS peptide conjugated with BSA (influenza A virus, A/chicken/HongKong/YU427/03 (H9N2)); experiment: as above; conditions: remark: other sources report otherwise
[20] = target: M2LTGEKS-BSA conjugate (influenza A virus, A/Hong Kong/1074/99 (H9N2)); experiment: as above; conditions: remark: other sources report otherwise
[21] = target: M2-BSA conjugate (influenza A virus, A/Hong Kong/1/68 (H3N2)); experiment: as above
[22] = target: M2TGEK-BSA conjugate (influenza A virus, A/Netherlands/33/03 (H7N7)); experiment: as above; conditions: remark: other sources report otherwise
[23] = target: T1, M2GHTGKS peptide conjugated with BSA …; experiment: peptide-BSA ELISA; legend: EC50 > 10^-8M: -; conditions: remark: other sources report otherwise
[24] = target: T2, M2KGENS peptide conjugated with BSA …; experiment: peptide-BSA ELISA; legend: EC50 > 10^-8M: -; conditions: remark: other sources report otherwise
[25] = target: T4, M2LTKGS peptide conjugated with BSA (influenza A virus, A/Hong Kong/542/97 (H5N1)); experiment: peptide-BSA ELISA; legend: EC50 > 10^-8M: -; conditions: remark: other sources report otherwise
[26] = target: T3, M2PHTGS peptide conjugated with BSA …; experiment: peptide-BSA ELISA; legend: EC50 > 10^-8M: -; conditions: remark: other sources report otherwise
[27] = target: T5, M2KTGEKS peptide conjugated with BSA (influenza A virus, A/Quail/Arkansas/16309-7/94 (H7N3NSA)); experiment: peptide-BSA ELISA; legend: EC50 > 10^-8M: -; conditions: remark: other sources report otherwise
[28] = target: T6, M2HTGEKS peptide conjugated with BSA (influenza A virus, A/chicken/California/1002a/00 (H6N2)); experiment: peptide-BSA ELISA; legend: EC50 > 10^-8M: -; conditions: remark: other sources report otherwise
[29] = target: T7, M2LTGS peptide conjugated with BSA (influenza A virus, A/Hong Kong/156/97 (H5N1)); experiment: peptide-BSA ELISA; legend: EC50 > 10^-8M: -; conditions: remark: other sources report otherwise
[30] = target: M12 (influenza A virus); experiment: ELISA on peptide, Ab 10 µg/ml
[31] = target: T1, M2GHTGKS peptide conjugated with BSA …; experiment: peptide-BSA ELISA; conditions: remark: other sources report otherwise
[32] = target: T2, M2KGENS peptide conjugated with BSA …; experiment: peptide-BSA ELISA; conditions: remark: other sources report otherwise
[33] = target: T4, M2LTKGS peptide conjugated with BSA …; experiment: peptide-BSA ELISA; conditions: remark: other sources report otherwise
[34] = target: T3, M2PHTGS peptide conjugated with BSA …; experiment: peptide-BSA ELISA; conditions: remark: other sources report otherwise
[35] = target: T5, M2KTGEKS peptide conjugated with BSA …; experiment: peptide-BSA ELISA; conditions: remark: other sources report otherwise
[36] = target: T6, M2HTGEKS peptide conjugated with BSA …; experiment: peptide-BSA ELISA; conditions: remark: other sources report otherwise
[37] = target: T7, M2LTGS peptide conjugated with BSA …; experiment: peptide-BSA ELISA; conditions: remark: other sources report otherwise
[38] = target: M2PHTGS (influenza A virus, A/chicken/HongKong/YU427/03 (H9N2)); conditions: remark: other sources report otherwise
[39] = target: M2HTGEKS (influenza A virus, A/chicken/California/1002a/00 (H6N2)); conditions: remark: other sources report otherwise
[40] = target: M2KTGEKS (influenza A virus, A/Quail/Arkansas/16309-7/94 (H7N3NSA)); conditions: remark: other sources report otherwise
[41] = target: M2KGENS (influenza A virus, A/Turkey/VA/158512/02 (H7N2)); conditions: remark: other sources report otherwise
[42] = target: M2LTKGS (influenza A virus, A/Hong Kong/542/97 (H5N1)); conditions: remark: other sources report otherwise
[43] = target: M2GHTGKS (influenza A virus, A/chicken/HongKong/SF1/03 (H9N2)); conditions: remark: other sources report otherwise
[44] = target: M2LTGS (influenza A virus, A/Hong Kong/156/97 (H5N1)); conditions: remark: other sources report otherwise
[45] = target: M2DLTGS peptide conjugated with BSA (influenza A virus, A/Hong Kong/485/97 (H5N1)); experiment: peptide-BSA ELISA (++ EC50<10^-9M; + 10^-9M<EC50<10^-8M); conditions: remark: other sources report otherwise
[46] = target: M2SG peptide conjugated with BSA (influenza A virus, A/swine/Tennessee/25/77 (H1N1)); experiment: as above; conditions: remark: other sources report otherwise

B1: L66 (antibody, V domains shown)
VH: EVQLVESGGGVVRPGGSLRLSCAASGFTFDDYGMSWVRQAPGKGLEWVSGINWNGGSTGYADSVKGRFTISRDNAKNSLYLQMNSLRAEDTALYYCARDRVTMVRGVIMDYYGMDVWGQGTTVTVSS
VL: QTVVTQEPSLTVSPRGTVTLTCSSSTGAVTSGYYPGWFQLKPGQAPMSLIYSARKKHSWTPARFSGSLLGGKAALTLSGVQPEDEAEYYCLLYYGGAYVFGTGTKVTVLG
Binder B1 has an ELISA(OD450) [1] of 0.08 OD450, an ELISA(OD450) [2] of 0.51 OD450 and an ELISA(OD450) [3] of 0.12 OD450. For the same binder, the ELISA(OD450) [4] was 0.09 OD450, the ELISA(OD450) [5] was 0.12 OD450 and the ELISA(OD450) [6] was 0.08 OD450. The ELISA(OD450) [7] was 0.08 OD450, the ELISA(OD450) [8] was 0.09 OD450 and the ELISA(OD450) [9] was 0.22 OD450. For the same binder, the ELISA(OD450) [10] was 0.99 OD450, the ELISA(OD450) [11] was 0.13 OD450 and the ELISA(OD450) [12] was 1.04 OD450. For the same binder, the ELISA(OD450) [13] was 0.2 OD450, the ELISA(OD450) [14] was 0.09 OD450 and the EC50 [15] was < 1 nM. The EC50 [16] was 1 to 10 nM, the EC50 [17] was < 1 nM and the EC50 [18] was < 1 nM. The EC50 [19] was < 1 nM, the EC50 [20] was < 1 nM and the EC50 [21] was < 1 nM. The EC50 [22] was < 1 nM.

B2: C40G1 (antibody, V domains shown)
VH: QLQLQESGPGLVKPSETLSLTCTVSGGSISSSFYYCGWIRQPPGKGLEWIGSIYYRGSTYYNPSLKSRVTISVDTSKNQFSLKLSSVTAADTAVYYCARRVTMVRGVKGDYFDYWGQGTLVTVSS
VL: DIQMTQSPSSLSASVGDRVTITCRASQGISSWLAWYQQKPEKVPKSLIYAASSLQSGVPSRFSGSGSGTDFTLTISSLQPEDFATYYCQQYNYYPLTFGGGTKVEIKR
In the case of B2, the EC50 [23] is reported as > 10 nM, the EC50 [24] is reported as > 10 nM and the EC50 [25] is reported as > 10 nM. The EC50 [26] was > 10 nM, the EC50 [27] was > 10 nM and the EC50 [28] was > 10 nM. For the same binder, the EC50 [29] was > 10 nM, the ELISA(OD450) [1] was 0.1 OD450 and the ELISA(OD450) [3] was 0.12 OD450. For the same binder, the ELISA(OD450) [4] was 0.76 OD450, the ELISA(OD450) [5] was 2.78 OD450 and the ELISA(OD450) [6] was 0.11 OD450. For the same binder, the ELISA(OD450) [7] was 0.1 OD450, the ELISA(OD450) [8] was 0.11 OD450 and the ELISA(OD450) [9] was 2.49 OD450. The ELISA(OD450) [30] was 2.71 OD450, the ELISA(OD450) [11] was 2.41 OD450 and the ELISA(OD450) [14] was 0.31 OD450. For the same binder, the EC50 [31] was > 10 nM, the EC50 [32] was > 10 nM and the EC50 [33] was > 10 nM. For the same binder, the EC50 [34] was > 10 nM, the EC50 [35] was > 10 nM and the EC50 [36] was > 10 nM. For the same binder, the EC50 [37] was > 10 nM, the % of O.D. on M2 (SEQ ID NO:1) [38] was < 10% and the % of O.D. on M2 (SEQ ID NO:1) [39] was < 10%. For the same binder, the % of O.D. on M2 (SEQ ID NO:1) [40] was < 10%, the % of O.D. on M2 (SEQ ID NO:1) [41] was < 10% and the % of O.D. on M2 (SEQ ID NO:1) [42] was < 10%. For the same binder, the % of O.D. on M2 (SEQ ID NO:1) [43] was < 10%, the % of O.D. on M2 (SEQ ID NO:1) [44] was < 10% and the EC50 [16] was < 1 nM. For the same binder, the EC50 [18] was < 1 nM, the EC50 [45] was 1 to 10 nM and the EC50 [46] was < 1 nM.
